Measurements published in patent publication US20140335192.

Columns and labels:
Test in all cases: ITC
Settings in all cases: 250 uM protein into 40 uM siRNA, unit of K not stated
[1] = test system: DRBD (double-stranded RNA binding domain)
[2] = test system: PTD (protein transduction domain peptide)
[3] = test system: DRBD-PTD chimera (RND-DRBD)

Luciferase siRNA
Ka ([1]; Sorensen's phosphate buffer, enthalpy 1998.83 kJ/mol): 15200
Ka ([1]; deionized water, enthalpy 201.18 kJ/mol): 10500
Ka ([2]; Sorensen's phosphate buffer, enthalpy 14.03 kJ/mol): 1.04e+07
Ka ([2]; deionized water, enthalpy 29.83 kJ/mol): 1e+10
Ka ([3]; Sorensen's phosphate buffer, enthalpy 61.51 kJ/mol): 2.12e+07
Ka ([3]; deionized water, enthalpy 98.92 kJ/mol): 1e+10
